This is an account of results in US6133431.

The target of test [1] is IgG in human serum. The test is described as follows: batch adsorption from human serum with 20 µg/ml Model IC, peptide on GCL2000m gel (2.1 mg/ml), 37 °C 2 h, not sterilised, N-Assay TIA kit.
The target of test [2] is thermally coagulated immunoglobulin complexes. As to the kind of experiment: batch adsorption from human serum with 20 µg/ml Model IC, peptide on GCL2000m gel (2.1 mg/ml), 37 °C 2 h, not sterilised, C1q-CIC enzyme immunoassay.
Test [3] shares this target. The test is described as follows: batch adsorption from human serum with 20 µg/ml Model IC, peptide on GCL2000m gel (2.5 mg/ml), not sterilised, C1q-CIC enzyme immunoassay.
The target of test [4] is IgG in human serum. As to the kind of experiment: batch adsorption from human serum with 20 µg/ml Model IC, peptide on GCL2000m gel (2.5 mg/ml), not sterilised, N-Assay TIA kit.
In test [5] the target is thermally coagulated immunoglobulin complexes. The test is described as follows: batch adsorption from human serum with 20 µg/ml Model IC, peptide on AF-Torecyl Toyopearl 650 (3.6 mg/ml), not sterilised, C1q-CIC enzyme immunoassay.
Test [6] concerns the target IgG in human serum. As to the kind of experiment: batch adsorption from human serum with 20 µg/ml Model IC, peptide on AF-Torecyl Toyopearl 650 (3.6 mg/ml), not sterilised, N-Assay TIA kit.
Test [7] deals with IgG in human serum. As to the kind of experiment: batch adsorption from human serum with 20 µg/ml Model IC, peptide on GC700m gel (4.0 mg/ml), not sterilised, N-Assay TIA kit.
Test [8] has as its target thermally coagulated immunoglobulin complexes. The test is described as follows: batch adsorption from human serum with 20 µg/ml Model IC, peptide on GC700m gel (4.0 mg/ml), not sterilised, C1q-CIC enzyme immunoassay.
Test [9] concerns the target IgG in human serum. As to the kind of experiment: batch adsorption from human serum with 20 µg/ml Model IC, peptide on GCL2000m gel (2.6 mg/ml), not sterilised, N-Assay TIA kit.
In test [10] the target is thermally coagulated immunoglobulin complexes. The test is described as follows: batch adsorption from human serum with 20 µg/ml Model IC, peptide on GCL2000m gel (2.6 mg/ml), not sterilised, C1q-CIC enzyme immunoassay.
The target in test [11] is circulating immune complexes in the serum of a patient suffering from rheumatism. As to the kind of experiment: batch adsorption from the serum of a patient suffering from rheumatism, peptide on Thiopropyl Sepharose 6B (0.8 mg/ml), 37 °C 2 h, supernatant by C1q-CIC kit.
The target in test [12] is IgG4 subclass in human serum. As to the kind of experiment: batch adsorption from the serum of a healthy subject, peptide on Thiopropyl Sepharose 6B (0.8 mg/ml), supernatant by immune diffusion (SRID).
In test [13] the target is IgG1 subclass in human serum. Described as above.
In test [14] the target is IgG2 subclass in human serum. The description is as above.
Test [15] concerns the target IgG3 subclass in human serum. The test is described as above.
Test [16] has as its target IgG in human serum. The test is described as follows: batch adsorption from the serum of a healthy subject, peptide on Thiopropyl Sepharose 6B (0.8 mg/ml), 37 °C 2 h, supernatant by N-Assay TIA kit.
In test [17] the target is IgM in human serum. The description is as above.
Test [18] concerns the target thermally coagulated immunoglobulin complexes. As to the kind of experiment: batch adsorption from healthy human serum with 20 µg/ml thermally coagulated complexes, peptide on Thiopropyl Sepharose 6B (0.8 mg/ml), 37 °C 2 h, supernatant by C1q-CIC kit.
Test [19] deals with IgG in human serum. The test is described as follows: batch adsorption from human serum with 20 µg/ml Model IC, peptide on GC700m gel (2.6 mg/ml), not sterilised, N-Assay TIA kit.
Test [20] has as its target thermally coagulated immunoglobulin complexes. As to the kind of experiment: batch adsorption from human serum with 20 µg/ml Model IC, peptide on GC700m gel (2.6 mg/ml), not sterilised, C1q-CIC enzyme immunoassay.

B1: MK3P47 peptide (peptide)
peptide: MKKKTTYKLVINGKTLKGETTTKAVDAETAEKAFKQYANDNGVDGVWTYDPATKTFTVTE
On to B1, for which, in test [1], the IgG adsorption ratio (%) worked out at 85%. Further, the IC adsorption ratio (%) in [2] came to 35%.

B2: MK3G56 peptide (peptide)
peptide: MKKKTTYKLVINGKTLKGETTTKAVDAETAEKAFKQYANDNGVDGVWTYDDATKTFTVTE
Turning to B2, in test [3], the IC adsorption ratio (%) worked out at 30%. The IgG adsorption ratio (%) in test [4] amounted to 70%.

B3: MK3-7M peptide (peptide)
peptide: MKKKTTYKLILNGKTLKGETTTKAVDAATAEKVFKQYANDNGVDGEWTYDPATKTFTVTE
Consider B3, for which, in test [5], the IC adsorption ratio (%) is 35%. For the same molecule, the IgG adsorption ratio (%) in [6] turned out to be 75%.

B4: MP47C peptide (peptide)
peptide: MTTYKLVINGKTLKGETTTKAVDAETAEKAFKQYANDNGVDGVWTYDPATKTFTVTEC
As for B4, in [7], the IgG adsorption ratio (%) is 90%. Besides, in [8], the IC adsorption ratio (%) is 65%.

B5: MP47K3 peptide (peptide)
peptide: MTTYKLVINGKTLKGETTTKAVDAETAEKAFKQYANDNGVDGVWTYDPATKTFTVTEKKK
On to B5, for which the IgG adsorption ratio (%) in test [9] was determined as 70%. Also, the IC adsorption ratio (%) in [10] is 35%.

B6: peptide having a sequence consisting of 57 residues of domain C3 of protein G with cysteine added to an N-terminus (peptide)
peptide: CTTYKLVINGKTLKGETTTKAVDAETAEKAFKQYANDNGVDGVWTYDDATKTFTVTE
As to B6, in test [11], the adsorption ratio of immune complexes (%) was 29.3%. For the same molecule, the adsorption ratio of IgG subclasses (%) in test [12] came out at 65.7%; in test [13], 93.2%; in test [14], 78.9%; in test [15], 63.2%. Besides, the adsorption ratio of immunoglobulins (%) in test [16] was 83.4%; in [17] it was 2.7%. Besides, the adsorption ratio of thermally coagulated complexes (%) in test [18] worked out at 41.7%.

B7: MP47 peptide (peptide)
peptide: MTTYKLVINGKTLKGETTTKAVDAETAEKAFKQYANDNGVDGVWTYDPATKTFTVTE
For the molecule B7, the IgG adsorption ratio (%) in test [19] was found to be 60%. The IC adsorption ratio (%) in [20] turned out to be 35%.

B8: MG56 peptide (peptide)
peptide: MTTYKLVINGKTLKGETTTKAVDAETAEKAFKQYANDNGVDGVWTYDDATKTFTVTE
As for B8, the IgG adsorption ratio (%) in [7] worked out at 65%. The IC adsorption ratio (%) in [8] is 30%.
